Columns and labels:
wild-type RNase 1 = test system: T1, wild-type RNase 1
T1 sequence: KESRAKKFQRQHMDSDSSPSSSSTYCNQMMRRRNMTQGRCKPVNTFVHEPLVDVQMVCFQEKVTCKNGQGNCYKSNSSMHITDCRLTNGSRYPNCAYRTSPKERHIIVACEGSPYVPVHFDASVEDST

[1] = test system: T2, Str3 circular zymogen of RNase 1
T2 sequence: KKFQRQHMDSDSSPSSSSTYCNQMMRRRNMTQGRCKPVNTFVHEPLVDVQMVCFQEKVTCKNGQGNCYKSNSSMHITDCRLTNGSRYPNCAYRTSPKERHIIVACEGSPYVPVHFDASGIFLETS

[2] = test system: T3, Str2 circular zymogen of RNase 1
T3 sequence: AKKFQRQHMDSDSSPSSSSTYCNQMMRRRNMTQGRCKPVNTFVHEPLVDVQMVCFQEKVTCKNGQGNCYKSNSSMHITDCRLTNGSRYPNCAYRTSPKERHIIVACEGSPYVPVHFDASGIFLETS

[3] = test system: T4, Str4 circular zymogen of RNase 1
T4 sequence: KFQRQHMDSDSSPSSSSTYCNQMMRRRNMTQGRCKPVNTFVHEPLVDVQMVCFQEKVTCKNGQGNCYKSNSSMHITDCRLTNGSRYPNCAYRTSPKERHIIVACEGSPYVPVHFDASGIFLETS

HIV-1 protease was tested, and the “proteolytic cleavage after 3 hours of treatment at 37° C.” value (wild-type RNase 1) was “no detectable cleavage of wild-type RNase 1 was observed”, the kcat/KM (HIV-1 protease) [1] was 1300 M⁻¹ s⁻¹ and the kcat/KM (HIV-1 protease) [2] was 3900 M⁻¹ s⁻¹. It also gave a kcat/KM (HIV-1 protease) [3] of 2500 M⁻¹ s⁻¹.

Reference: patent publication US20200405829
